Test system: pDC
Test: pDC fraction after FLT3L injection in mice
Format: in vivo
Conditions: after 7 days
From the text: Inbred mice and distribution of dendritic cells: BL/6, SV129 and […] inbred mouse lines were obtained from Jackson Laboratory (Bar Harbor, ME) The distribution of dendritic cells were examined using flow cytometry by using fluorochrome-conjugated monoclonal antibodies. Briefly, cells from spleen and liver were isolated from the mice and stained using fluorophore labeled antibodies. Cells were then fixed using 4% paraformaldehyde and analyzed by flow cytometry.
Further, the amount of pDC fraction was found inducible with injection of FMS-like tyrosine kinase 3 ligand in mice after 7 days (FIG. 2A-2B). Incubation of bone marrow differentiation culture with mouse transferrin for 7 days enhanced CD71 expression and pDC fraction (FIG. 2C-2D).

B1: FMS-like tyrosine kinase 3 ligand: FMS-like tyrosine kinase 3 ligand injected in mice to induce pDC fraction (protein, UniProt P49771 27-235, looked up)
Fms-related tyrosine kinase 3 …: TQDCSFQHSPISSDFAVKIRELSDYLLQDYPVTVASNLQDEELCGGLWRLVLAQRWMERLKTVAGSKMQGLLERVNTEIHFVTKCAFQPPPSCLRFVQTNISRLLQETSEQLVALKPWITRQNFSRCLELQCQPDSSTLPPPWSPRPLEATAPTAPQPPLLLLLLLPVGLLLLAAAWCLHWQRTRRRTPRPGEQVPPVPSPQDLLLVEH
In the case of B1, the pDC fraction is reported as “inducible” and the pDC fraction (listed as FLT3L) is reported as “inducible upregulation”.
